Reference: patent publication US5786169

Assays:
Assay in all cases: yeast interaction trap (two-hybrid), LexAop-lacZ reporter pJK103 in EGY48, galactose medium
[1] = biological target: LexA-Fus3 (Sc) bait protein (S. cerevisiae) (UniProt P16892)
[2] = biological target: LexA-Cdc28 (Sc) bait protein (S. cerevisiae) (UniProt P00546)
[3] = biological target: LexA-Cdk2 (Hs) bait protein (human) (UniProt P24941)
[4] = biological target: LexA-Cdc2 (Hs) bait protein (human) (UniProt P06493)
[5] = biological target: LexA-Cdc2c (Dm) bait protein (Drosophila) (UniProt P23573)
[6] = biological target: LexA-Cdc2 (Dm) bait protein (Drosophila) (UniProt P23572)

- β-Galactosidase Activity (β-galactosidase units) [1]: > 2
- β-Galactosidase Activity (β-galactosidase units) [2]: 480
- β-Galactosidase Activity (β-galactosidase units) [3]: 440
- β-Galactosidase Activity (β-galactosidase units) [4]: 1580
- β-Galactosidase Activity (β-galactosidase units) [5]: > 2
- β-Galactosidase Activity (β-galactosidase units) [6]: 40
Substance: tagged Cdi1 (activation-tagged prey fusion expressed from library plasmid pJG4-5)
